The experiment has as its target T1, PKC-theta (Homo sapiens, UniProt Q04759).
T1 construct: His-tag; made in house; host or cells: baculovirus-infected Sf9 cells
Put plainly: In vitro kinase assay: peptide phosphorylation by PKC-theta. The class given is biochemical. The conditions noted are these: for Peptide phosphorylation by PKC-theta: Table 8; for PKC theta phosphorylation: normalized to best substrate. The source says:
A second strategy for validation of the PSSM derived from the methods described herein is to identify sequences represented in the human proteome that have low percentiles derived from the PSSM, to synthesize peptides that have those sequences, and test the efficiency of phosphorylation of those peptides by the kinase of interest. […] The results are shown for individual peptides (FIG. 11, panel A) or for groups of peptides aggregated by percentile prediction (FIG. 11, panel B). As with the testing described above with prospectively chosen peptides, the percentile scores are highly predictive of phosphorylation by the relevant kinase.
An example of the purification procedure used for production of active kinase is as follows. A preparation of PKC-theta was prepared using a Gateway expression construct containing PKC-theta that was expressed in baculovirus, which were used to infect Sf9 cells. The cell pellet from a liter of baculovirus-infected Sf9 cells was resuspended in 20 volumes (60 ml) of extraction buffer (20 mM Na phosphate buffer pH 7.5, 500 mM NaCl, 5 mM pyrophosphate, 10% glycerol, 10 mM imidazole, 1 mM PMSF), sonicated twice for one minute (1 cm tip at 60% power and 50% duty cycle) and cell disruption was verified microscopically. The sample was adjusted to five mM MgCl2 and treated with one U benzonase/ml for an additional 20 minute on ice. The sample was clarified by centrifugation in a JA-20 rotor at 15K for 30 min at 4° C., filtered through a […] filter and applied at 0.5 ml/min to a one ml chelating sepharose column previously charged with nickel and equilibrated with extraction buffer. The column was washed with extraction buffer at one ml/min to baseline and eluted in a 20 ml gradient (20-500 mM imidazole in extraction buffer) into one ml fractions that were analyzed by SDS-PAGE. Fractions with the highest concentration of protein were pooled, were dialyzed twice against one liter of 20 mM Na PO4 pH 7.5, 50 mM NaCl buffer. The kinase pool was dialyzed twice against 20 mM HEPES pH 7.4, 100 mM NaCl, 2 mM EDTA, 5 mM DTT, 0.05% Triton-X-100. After dialysis, the sample was adjusted to 50% glycerol and quick-frozen in a dry ice/ethanol bath.
The conditions of the kinase assay and the amount of active kinase used varied with the kinase and with the accuracy needed. For a typical experiment, 5-20 ng of kinase was used per well and each peptide pool was assayed in duplicate wells. Note that the absolute amount of kinase used was not usually a critical parameter, because the desired information related to specificity of the kinase not its absolute activity, and robustness of the assay depends on comparisons of the same amount of kinase on different peptides. The combination of kinase concentration and assay duration was modified to assure that the stoichiometry of peptide phosphorylation never exceeded 5%. The choice of kinase buffer depended on the kinase being analyzed. For studies of PKC, 100 mM HEPES, 0.05% Triton-X100, 1 mM CaCl2, 20 mM MgCl2, 0.2 mg/ml phosphatidyl serine (Avanti Polar Lipids), PMA 100 ng/ml was typically used. The lipid stock was prepared by transferring 3 mg phosphatidyl serine into iced mixture of 450 μl water plus 50 μl of 10% Triton-X100, sonicating 10 times on ice for 1 sec each.
The kinase reaction mixture was assembled by sequential addition to a tube held on ice of: 5 μl peptide (100 μM for final concentration of 10 μM), 15 μl of kinase (typically 5 ng/well, in appropriate kinase buffer), 30 μl of ATP (1 uCi/well of ^32P-gamma ATP in a stock of 167 μM cold ATP in the kinase buffer; for final concentration for 100 μM ATP). The mixture was rapidly warmed to desired reaction temperature (30° C. for PKC) and incubated for the desired duration (usually 10 minutes). The kinase assay was terminated by transfer to 4° C. water batch, and rapid addition of an equal volume (50 μl) of stop solution [0.1M ATP+0.1M EDTA in water, pH 8]. […]

T1 sequence (Q04759 whole entry): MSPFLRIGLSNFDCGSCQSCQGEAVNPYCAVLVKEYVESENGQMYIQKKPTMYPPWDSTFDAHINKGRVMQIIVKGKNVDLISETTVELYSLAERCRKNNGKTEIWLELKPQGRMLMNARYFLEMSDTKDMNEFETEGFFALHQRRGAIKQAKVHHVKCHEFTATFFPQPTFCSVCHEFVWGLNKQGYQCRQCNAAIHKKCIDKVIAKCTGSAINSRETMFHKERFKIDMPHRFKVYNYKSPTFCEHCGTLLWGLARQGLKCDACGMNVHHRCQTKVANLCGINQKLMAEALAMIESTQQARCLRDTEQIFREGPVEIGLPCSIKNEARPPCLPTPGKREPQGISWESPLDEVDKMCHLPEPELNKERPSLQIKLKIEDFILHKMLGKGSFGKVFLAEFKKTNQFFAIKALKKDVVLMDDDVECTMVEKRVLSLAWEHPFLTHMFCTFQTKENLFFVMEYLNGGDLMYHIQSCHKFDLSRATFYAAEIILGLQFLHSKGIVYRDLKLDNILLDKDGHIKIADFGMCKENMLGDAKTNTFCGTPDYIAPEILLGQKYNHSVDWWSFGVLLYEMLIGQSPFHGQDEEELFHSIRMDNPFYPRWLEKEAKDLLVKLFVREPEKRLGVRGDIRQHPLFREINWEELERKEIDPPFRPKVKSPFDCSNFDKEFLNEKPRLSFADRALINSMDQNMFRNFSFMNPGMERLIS

Regarding 76 (HVRRRRGTFKRSKLRARD) [compound 76], the “Peptide phosphorylation by PKC-theta” value amounted to 99 and the PKC theta phosphorylation was 100%.
Take 77 (KKKKRASFKRKSSKKG) [compound 77]: the PKC theta phosphorylation is 74%.
On the same count and under the same terms, the value for 78 (KFARKSTRRSIRLPE) [compound 78] was 47%; that for 79 (NRKKKRTSFKRKA) [compound 79] was 33%.
With 80 (KKKKKRFSFKKSFKL) [compound 80], the PKC theta phosphorylation stood at 63%.
The same measure, in the same setting: under 82 (PRLIRRGSKKRPAR) [compound 82] stands 49%; under 83 (RKIPKRPGSVHRTPSRQ) [compound 83], 92%; under 84 (QKKSRLRRRASQLKI) [compound 84], 87%.
Still for that read-out and setting: under 85 (RFARKGSLRQKNV) [compound 85] stands 46%.
For the substance 86 (RQRKRKLSFRRRTDKD) [compound 86], the PKC theta phosphorylation turned out to be 38%.
On the same count and under the same terms, under 89 (EYLERRASRRRAV) [compound 89] stands 60%; under 90 (AQIVKRASLKRGKQ) [compound 90], 38%.
With 92 (DGQKRKKSLRKKLD) [compound 92], the PKC theta phosphorylation is 47%.
As to 93 (AARKKRISVKKKQEQ) [compound 93], the PKC theta phosphorylation is recorded as 40%.
Still for that read-out and setting: the value for 94 (KLAVGRHSFSRRSGV) [compound 94] was 86%; that for 95 (KKKFRTPSFLKKSKK) [compound 95] was 42%.
The same measure, in the same setting: the value for 96 (RGFLRSASLGRRASFHLE) [compound 96] was 21%.
Take 99 (AGWRKKTSFRKPKED) [compound 99]: the PKC theta phosphorylation is reported as 25%.
Take 100 (WKGKRRSKARKKRK) [compound 100]: the PKC theta phosphorylation is on record as 56%.
For 101 (GAPPRRSSIRNAH) [compound 101], the PKC theta phosphorylation stood at 29%.
The same measure, in the same setting: under 102 (AGSFKRNSIKKIV) [compound 102] stands 28%; under 103 (LLKKRDSFRTPRDSKLE) [compound 103], 24%.
On the same count and under the same terms, the value for 104 (EKIKRSSLKKVDSLKK) [compound 104] was 25%.
On the same count and under the same terms, the value for 105 (ALRRPSLRREADD) [compound 105] was 21%; that for 106 (EILSRRPSYRKILND) [compound 106] was 19%; that for 107 (QKRHARVTVKYDRRE) [compound 107] was 40%.
Regarding 108 (KATTKKRTLRKNDRK) [compound 108], the PKC theta phosphorylation is 32%.
On the same count and under the same terms, the value for 109 (KEVVRTDSLKGRRGR) [compound 109] was 9%; that for 110 (EGGDRRASGRRK) [compound 110] was 22%; that for “111 (KKKRFSFKKSFKLSGFSFKK) [compound 111]” was 18%.
Take 112 (KRPGKKGSNKRPGKR) [compound 112]: the PKC theta phosphorylation is reported as 17%.
Still for that read-out and setting: the value for 113 (GENVLKKSMKSRVKG) [compound 113] was 10%.
As to 114 (KKKKRASFKRKSSKKG) [compound 114], the “phosphorylation by PKC theta” value (peptide concentration 1 uM) is given as 100 and the “phosphorylation by PKC theta” value (peptide concentration 10 uM) stood at 86.
Taken in the same sequence, the figures for 115 (NRKKKRTSFKRKA) [compound 115] were 89 and 77.
Taken in the same sequence, the figures for 116 (EEGTFRSSIRRLSTRRR) [compound 116] were 83 and 78.
As for 117 (NRKKKRTSFKRKA) [compound 117], the “phosphorylation by PKC theta” value by setting is: (peptide concentration 1 uM) 84; (peptide concentration 10 uM) 78.
Taken in the same sequence, the figures for “118 (RPQNTLKASKKKKRASFKRK) [compound 118]” were 67 and 52.
Taken in the same sequence, the figures for “119 (KKRFSFKKSFKLSGFSFKKN) [compound 119]” were 69 and 28.
Taken in the same sequence, the figures for 120 (AKRRRLSSLRASTSK) [compound 120] were 51 and 51.
Regarding 121 (LRRRSLRRSNSISKSPGP) [compound 121], the “Peptide phosphorylation by PKC-theta” value was found to be 57. Moreover, the “phosphorylation by PKC theta” value (peptide concentration 1 uM) amounted to 51. Also, the “phosphorylation by PKC theta” value (peptide concentration 10 uM) is 57.
For 122 (RAITSTLASSFKRRR) [compound 122], the “phosphorylation by PKC theta” value (peptide concentration 1 uM) is given as 66 and the “phosphorylation by PKC theta” value (peptide concentration 10 uM) is 42.
Taken in the same sequence, the figures for “123 (KKRFSFKKSFKLSGFSFKKN) [compound 123]” were 47 and 32.
As to 124 (PRLIRRGSKKRPAR) [compound 124], the “phosphorylation by PKC theta” value is, setting by setting: (peptide concentration 1 uM) 53; (peptide concentration 10 uM) 57.
Taken in the same sequence, the figures for “125 (PLKEKKRERKTSSKSSVRKR) [compound 125]” were 39 and 100.
Taken in the same sequence, the figures for “126 (KAIKAIEGGQKFARKSTRRS) [compound 126]” were 46 and 45.
Taken in the same sequence, the figures for “127 (SQVQKQRSAGSFKRNSIKKI) [compound 127]” were 45 and 58.
Take “128 (QQVDRERPHVRRRRGTFKRS) [compound 128]”: the “phosphorylation by PKC theta” value (peptide concentration 1 uM) amounted to 41 and the “phosphorylation by PKC theta” value (peptide concentration 10 uM) stood at 59.
Taken in the same sequence, the figures for “129 (VQRHRSMRKTFARYLSFRRD) [compound 129]” were 48 and 25.
With 130 (EYLERRASRRRAV) [compound 130], the “phosphorylation by PKC theta” value reads like this: (peptide concentration 1 uM) 38; (peptide concentration 10 uM) 44.
Regarding 131 (WKGKRRSKARKKRK) [compound 131], the “phosphorylation by PKC theta” value reads like this: (peptide concentration 1 uM) 53; (peptide concentration 10 uM) 35.
Taken in the same sequence, the figures for “132 (GFLNEPLSSKSQRRKSLKLK) [compound 132]” were 34 and 40.
Taken in the same sequence, the figures for “133 (LEKRGMLGKRPRRKSSRRKK) [compound 133]” were 46 and 53.
Taken in the same sequence, the figures for “134 (RSRSRSRSKSKDKRKSRKRS) [compound 134]” were 36 and 16.
Consider 135 (KKKFRTPSFLKKSKK) [compound 135], for which the “phosphorylation by PKC theta” value stood at 30 (peptide concentration 1 uM) and 36 (peptide concentration 10 uM).
Turning to 136 (RARRDSLKKIEIW) [compound 136], the “phosphorylation by PKC theta” value was determined as 42 (peptide concentration 1 uM) and 28 (peptide concentration 10 uM).
As for “137 (PSKSPSKKKKKFRTPSFLKK) [compound 137]”, the “phosphorylation by PKC theta” value amounted to 40 (peptide concentration 1 uM) and 19 (peptide concentration 10 uM).
Taken in the same sequence, the figures for 138 (EYLERRASRRRAV) [compound 138] were 34 and 39.
Taken in the same sequence, the figures for “139 (RPTPGDGEKRSRIKKSKKRK) [compound 139]” were 31 and 17.
Turning to “140 (TELEGGFSRQRKRKLSFRRR) [compound 140]”, the “phosphorylation by PKC theta” value runs as follows: (peptide concentration 1 uM) 25; (peptide concentration 10 uM) 35.

(Values after US20050064507A1, “Determining kinase specificity” (priority 2003, published 2005).)
